FireProtDB (doi:10.1002/prot.20496)
“And” between values parts separate entries of the source, which are not always exact repeats. Equal values may be shown once.

B1: Alpha-lactalbumin, P00712 (parent)
chain: MMSFVSLLLVGILFHATQAEQLTKCEVFQKLKDLKDYGGVSLPEWVCTAFHTSGYDTQAIVQNNDSTEYGLFQINNKIWCKDDQNPHSRNICNISCDKFLDDDLTDDIVCAKKILDKVGINYWLAHKALCSEKLDQWLCEKL

Variants of: B1
Conditions: Capra hircus, pH 7.5, Thermal, Tris-HCl 10 mM, CaCl2 2 mM, structure 1HFY, whole UniProt chain shown

Variant	Tm (DSC) [°C]	change of melting temperature, mutant - wild type (higher = more stable) (DSC) [°C]	Tm (Fluorescence)	change of melting temperature, mutant - wild type (higher = more stable) (Fluorescence)
W137F	71.5	0.4		
W79F W137F	68.1	-3	71 °C and 68 °C	-0.2 °C and -1.9 °C
W79F	67.9	-3.2	69.2 °C	-2 °C
